Key:
human CD20 [1] = target: T1, human CD20 (human, UniProt P11836 1-297); assay: FACS KD on SB cells expressing CD20 (GMF against mAb concentration, nonlinear fit)
T1 construct: whole, on cells; In all assays CD20 stood on cells; also called CD20 antigen
T1 sequence (looked up): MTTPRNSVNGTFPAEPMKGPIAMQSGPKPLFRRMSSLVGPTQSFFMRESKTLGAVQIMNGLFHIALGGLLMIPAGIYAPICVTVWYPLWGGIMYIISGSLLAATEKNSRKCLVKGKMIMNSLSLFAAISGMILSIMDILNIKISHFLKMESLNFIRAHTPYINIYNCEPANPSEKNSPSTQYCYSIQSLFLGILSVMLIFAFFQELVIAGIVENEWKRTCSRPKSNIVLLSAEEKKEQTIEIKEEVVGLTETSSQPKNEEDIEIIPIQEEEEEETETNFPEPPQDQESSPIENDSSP
Description: The affinity of purified antibodies against CD20 (mAbs 1.1.2, 1.2.1, 2.1.2, 1.3.3, 1.5.3, 1.10.3.1, 1.13.2), Rituximab (positive control), and B1 was determined by FACS. Briefly, SB cells expressing CD20 were resuspended in FACS buffer (2% FBS, 0.05% NaN₃) at a concentration of approximately 5 million cells/mL. HSB cells were also resuspended in FACS buffer at a concentration of approximately 9 million cells/mL. Cells were kept on ice. Purified antibodies were serially diluted in filtered 1×PBS (2×) across 11 wells in 96-well plates. The twelfth well in each row contained buffer only. 1×PBS and cells were added to each mAb well such that the final volume was […] and each well contained approximately 375,000 cells. The final molecular concentration ranges for the mAbs were as follows:
Plates were placed on a plate shaker for 3 hours at 4° C., then spun and washed 3× with PBS. 200 μL of 145 nM Cy5 goat α-human polyclonal antibody was added to each well, and 200 μL of 192 nM Cy5 goat α-mouse polyclonal antibody was added to the cells complexed with B1 antibody. Plates were then incubated for 40 minutes at 4° C., then spun and washed 3× with PBS.
The Geometric Mean Fluorescence (GMF) of 10,000 cells for each mAb concentration was determined using a FACSCalibur instrument. No significant nonspecific binding (no significant signal) was apparent from the HSB cells. In each row containing the SB cells, the signal from the twelfth well (containing buffer only) was subtracted from the signal from the first 11 wells. A nonlinear plot of GMF as a function of molecular mAb concentration was fit using Scientist software using the equation: […]

human CD20 [2] = target: T1, human CD20; assay: cell-based or functional assay

B1: mAb 2.1.2 (ATCC Accession Number PTA-7328) (antibody, human IgG1, V domains shown)
VH: EVQLVQSGAEVKKPGESLKISCKGSGYSFTSYWIGWVRQMPGKGLEWMGIIYPGDSDTRYSPSFQGQVTISADKSISTAYLQWSSLKASDTAMYYCARQGDFWSGYGGMDVWGQGTTVTVSS
VL: DIVMTQTPHSSPVTLGQPASISCRSSQSLVSRDGNTYLSWLQQRPGQPPRLLIYKISNRFSGVPNRFSGSGAGTDFTLKISRVKAEDVGVYYCMQATQFPLTFGQGTRLEIK
notes: Human IgG1 kappa; also called 2.1.1; 50-001H2_1_1
In the case of B1, the Kd (human CD20 [1]) is reported as 3.8 nM, the “% Lysis Daudi 0.001 µg/ml ADCC” value (human CD20 [2]) is reported as 52% and the “% Lysis Daudi 1 µg/ml ADCC” value (human CD20 [2]) is reported as 70%. For the same binder, the “% Lysis Raji 0.001 µg/ml ADCC” value (human CD20 [2]) was 7%, the “% Lysis Raji 1 µg/ml ADCC” value (human CD20 [2]) was 17% and the “% Lysis Ramos 0.001 µg/ml ADCC” value (human CD20 [2]) was 8%. For the same binder, the “% Lysis Ramos 1 µg/ml ADCC” value (human CD20 [2]) was 23%, the “EC50 µg/ml Daudi CDC” value (human CD20 [2]) was 0.51 µg/mL and the “EC50 µg/ml Raji CDC” value (human CD20 [2]) was 0.3 µg/mL. The “EC50 µg/ml Ramos Apoptosis Alamar Blue” value (human CD20 [2]) was 0.0329 µg/mL, the “EC50 µg/ml Ramos Apoptosis Annexin V” value (human CD20 [2]) was 0.163 µg/mL and the “EC50 µg/ml Ramos Apoptosis Cell Titer Glo” value (human CD20 [2]) was 0.0135 µg/mL. The “EC50 µg/ml Ramos Apoptosis WST-1” value (human CD20 [2]) was 0.0067 µg/mL and the “EC50 µg/ml Ramos CDC” value (human CD20 [2]) was 0.16 µg/mL.

B2: mAb 1.10.3.1 (antibody, human IgG1, V domains shown)
VH: EVQLVQSGAEVKKPGESLKISCKGSGYSFTSYWIGWVRQMPGKGLEWMGIIYPGDSDTRYSPSFQGQVTISADKSISTAYLQWSSLKASDTAMYYCARMGDFWSGYYTRGMDVWGQGTTVTVSS
VL: EIVMTQSPATLSVSPGERATLSCRASQSVSSNLAWYQQKPGQAPRLLISGASTRATGIPARFSGSGSGTEFTLTISSLQSEDFAVYYCHQYNDWSLTFGGGTKVEIK
notes: Human IgG1 kappa; also called 50-001H1_10_3_1
B2 was tested, and the Kd (human CD20 [1]) was 11.2 nM.

B3: mAb 1.13.2 (antibody, human IgG1, V domains shown)
VH: EVQLVQSGAEVKKPGESLKISCKGSGYSFTNYWIGWVRQMPGKGLEWMGIIYPGDSDTRYSPSFQGQVTISADKSISTAYLQWSSLKASDTAMYYCARQGDYYHYSGMDVWGQGTTVTVSS
VL: DVVMTQSPLSLSVTLGQPASISCRSSQSLVYNDGDTYLNWFQQRPGQSPRLLIYKVSNWDSGVPDRFSGSGSGTDFTLKVSRVEAEDVGVYYCMQGTHWPLTFGGGTKVEIK
notes: Human IgG1 kappa; also called 1.13.1; 50-001H1_13_1
B3 was tested, and the Kd (human CD20 [1]) was 23.6 nM, the “% Lysis Daudi 0.001 µg/ml ADCC” value (human CD20 [2]) was 24% and the “% Lysis Daudi 1 µg/ml ADCC” value (human CD20 [2]) was 74%. For the same binder, the “% Lysis Raji 0.001 µg/ml ADCC” value (human CD20 [2]) was 5%, the “% Lysis Raji 1 µg/ml ADCC” value (human CD20 [2]) was 21% and the “% Lysis Ramos 0.001 µg/ml ADCC” value (human CD20 [2]) was 4%. The “% Lysis Ramos 1 µg/ml ADCC” value (human CD20 [2]) was 33%, the “EC50 µg/ml Daudi CDC” value (human CD20 [2]) was ~10 µg/mL and the “EC50 µg/ml Raji CDC” value (human CD20 [2]) was 3.54 µg/mL. For the same binder, the “EC50 µg/ml Ramos Apoptosis Alamar Blue” value (human CD20 [2]) was 0.291 µg/mL, the “EC50 µg/ml Ramos Apoptosis Annexin V” value (human CD20 [2]) was 2.97 µg/mL and the “EC50 µg/ml Ramos Apoptosis Cell Titer Glo” value (human CD20 [2]) was 1.44 µg/mL. The “EC50 µg/ml Ramos Apoptosis WST-1” value (human CD20 [2]) was 0.096 µg/mL and the “EC50 µg/ml Ramos CDC” value (human CD20 [2]) was 6.82 µg/mL.

B4: mAb 1.2.1 (antibody, human IgG1, V domains shown)
VH: EVQLVQSGAEVKKPGESLKISCKGSGYSFTSYWIGWVRQMPGKGLEWMGIIYPGDSDTRYSPSFQGQVTISADKSISTAYLQWSSLKASDTAMYYCARLGDYYNYYGMDVWGQGTTVTVSS
VL: DIVMTQTPLSSPVTLGQPASISCRSSQSLVHSDGKTYLSWLQQRPGQPPRLLIYKSSNRFSGVPDRFSGSGAGTDFTLKISRVEAEDVGVYYCVQATQFPITFGQGTRLEIK
notes: Human IgG1 kappa; also called 1.2.1.1; 50-001H1_2_1_1
In the case of B4, the Kd (human CD20 [1]) is reported as 11.9 nM, the “% Lysis Daudi 0.001 µg/ml ADCC” value (human CD20 [2]) is reported as 56% and the “% Lysis Daudi 1 µg/ml ADCC” value (human CD20 [2]) is reported as 86%. The “% Lysis Raji 0.001 µg/ml ADCC” value (human CD20 [2]) was 8%, the “% Lysis Raji 1 µg/ml ADCC” value (human CD20 [2]) was 45% and the “% Lysis Ramos 0.001 µg/ml ADCC” value (human CD20 [2]) was 8%. For the same binder, the “% Lysis Ramos 1 µg/ml ADCC” value (human CD20 [2]) was 67%, the “EC50 µg/ml Daudi CDC” value (human CD20 [2]) was > 10 µg/mL and the “EC50 µg/ml Raji CDC” value (human CD20 [2]) was > 10 µg/mL. The “EC50 µg/ml Ramos Apoptosis Cell Titer Glo” value (human CD20 [2]) was 15.2 µg/mL and the “EC50 µg/ml Ramos CDC” value (human CD20 [2]) was > 10 µg/mL.

B5: mAb 1.1.2 (ATCC Accession Number PTA-7329) (antibody, human IgG1, V domains shown)
VH: EVQLVQSGAEVKKPGESLKISCKGSGYSFTSYWIGWVRQMPGKGLEWMGIIYPGDSDTRYRPSFQGQVTISADKSITTAYLQWSSLKASDTAMYYCARHPSYGSGSPNFDYWGQGTLVTVSS
VL: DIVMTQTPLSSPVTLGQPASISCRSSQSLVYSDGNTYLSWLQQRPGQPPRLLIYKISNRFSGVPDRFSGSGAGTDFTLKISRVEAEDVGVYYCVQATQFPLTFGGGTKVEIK
notes: also called 50-001H1_1_2
In the case of B5, the Kd (human CD20 [1]) is reported as 11.1 nM, the “% Lysis Daudi 0.001 µg/ml ADCC” value (human CD20 [2]) is reported as 77% and the “% Lysis Daudi 1 µg/ml ADCC” value (human CD20 [2]) is reported as 96%. The “% Lysis Raji 0.001 µg/ml ADCC” value (human CD20 [2]) was 12%, the “% Lysis Raji 1 µg/ml ADCC” value (human CD20 [2]) was 53% and the “% Lysis Ramos 0.001 µg/ml ADCC” value (human CD20 [2]) was 15%. For the same binder, the “% Lysis Ramos 1 µg/ml ADCC” value (human CD20 [2]) was 84%, the “EC50 µg/ml Daudi CDC” value (human CD20 [2]) was 0.8 µg/mL and the “EC50 µg/ml Raji CDC” value (human CD20 [2]) was 0.4 µg/mL. The “EC50 µg/ml Ramos Apoptosis Alamar Blue” value (human CD20 [2]) was 0.0481 µg/mL, the “EC50 µg/ml Ramos Apoptosis Annexin V” value (human CD20 [2]) was 0.518 µg/mL and the “EC50 µg/ml Ramos Apoptosis Cell Titer Glo” value (human CD20 [2]) was 0.041 µg/mL. The “EC50 µg/ml Ramos Apoptosis WST-1” value (human CD20 [2]) was 0.0055 µg/mL and the “EC50 µg/ml Ramos CDC” value (human CD20 [2]) was 0.24 µg/mL.

B6: mAb 1.3.3 (antibody, V domains shown)
VH: EVQLVQSGAEVKKPGESLKISCKGSGYSFTSYWIGWVRQMPGKGLEWMGIIYPGDSDTRYSPSFQGQVTISADKSITTAYLQWSSLKASDTAMYYCARHPSYGSGSPNFDYWGQGTLVTVSS
VL: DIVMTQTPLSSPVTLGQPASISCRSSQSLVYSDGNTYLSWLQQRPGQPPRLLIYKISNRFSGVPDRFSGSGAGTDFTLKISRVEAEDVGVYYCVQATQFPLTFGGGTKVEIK
notes: Human IgG1 kappa
With B6 the Kd (human CD20 [1]) was 8.9 nM, the “% Lysis Daudi 0.001 µg/ml ADCC” value (human CD20 [2]) was 63% and the “% Lysis Daudi 1 µg/ml ADCC” value (human CD20 [2]) was 88%. The “% Lysis Raji 0.001 µg/ml ADCC” value (human CD20 [2]) was 9%, the “% Lysis Raji 1 µg/ml ADCC” value (human CD20 [2]) was 33% and the “% Lysis Ramos 0.001 µg/ml ADCC” value (human CD20 [2]) was 10%. The “% Lysis Ramos 1 µg/ml ADCC” value (human CD20 [2]) was 58%, the “EC50 µg/ml Daudi CDC” value (human CD20 [2]) was 1.91 µg/mL and the “EC50 µg/ml Raji CDC” value (human CD20 [2]) was 0.22 µg/mL. The “EC50 µg/ml Ramos Apoptosis Alamar Blue” value (human CD20 [2]) was 0.0485 µg/mL, the “EC50 µg/ml Ramos Apoptosis Annexin V” value (human CD20 [2]) was 0.886 µg/mL and the “EC50 µg/ml Ramos Apoptosis Cell Titer Glo” value (human CD20 [2]) was 0.332 µg/mL. For the same binder, the “EC50 µg/ml Ramos Apoptosis WST-1” value (human CD20 [2]) was 0.0096 µg/mL and the “EC50 µg/ml Ramos CDC” value (human CD20 [2]) was 0.23 µg/mL.

B7: mAb 1.5.3 (ATCC Accession Number PTA-7330) (antibody, human IgG1, V domains shown)
VH: EVQLVQSGAEVKKPGESLKISCKGSGYSFTSYWIGWVRQMPGKGLEWMGIIYPGDSDTRYSPSFQGQVTISADKSITTAYLQWSSLKASDTAMYYCARHPSYGSGSPNFDYWGQGTLVTVSS
VL: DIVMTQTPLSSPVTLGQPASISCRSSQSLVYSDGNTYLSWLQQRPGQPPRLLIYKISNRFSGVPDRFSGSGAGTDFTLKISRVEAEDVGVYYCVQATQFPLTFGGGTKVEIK
notes: Fully human IgG1 kappa; also called 50-001H1_5_3
In the case of B7, the Kd (human CD20 [1]) is reported as 9.1 nM, the “% Lysis Daudi 0.001 µg/ml ADCC” value (human CD20 [2]) is reported as 66% and the “% Lysis Daudi 1 µg/ml ADCC” value (human CD20 [2]) is reported as 79%. For the same binder, the “% Lysis Raji 0.001 µg/ml ADCC” value (human CD20 [2]) was 10%, the “% Lysis Raji 1 µg/ml ADCC” value (human CD20 [2]) was 53% and the “% Lysis Ramos 0.001 µg/ml ADCC” value (human CD20 [2]) was 8%. For the same binder, the “% Lysis Ramos 1 µg/ml ADCC” value (human CD20 [2]) was 60%, the “EC50 µg/ml Daudi CDC” value (human CD20 [2]) was ~10 µg/mL and the “EC50 µg/ml Raji CDC” value (human CD20 [2]) was 0.53 µg/mL. For the same binder, the “EC50 µg/ml Ramos Apoptosis Alamar Blue” value (human CD20 [2]) was 0.08 µg/mL, the “EC50 µg/ml Ramos Apoptosis Annexin V” value (human CD20 [2]) was 1.03 µg/mL and the “EC50 µg/ml Ramos Apoptosis Cell Titer Glo” value (human CD20 [2]) was 0.191 µg/mL. For the same binder, the “EC50 µg/ml Ramos Apoptosis WST-1” value (human CD20 [2]) was 0.037 µg/mL and the “EC50 µg/ml Ramos CDC” value (human CD20 [2]) was 2.56 µg/mL.

Reference: patent publication US20070014720A1 (published 2007)
